Source: patent US20150353911

How the values were obtained:
[1] = tested on: FVII-184
[2] = tested on: Compound 5
[3] = tested on: Compound 6
[4] = tested on: FVII-133
[5] = tested on: Compound 4
[6] = tested on: Compound 1

thrombin was tested, and the “clotting activity by ROTEM in human hemophilia A blood” value [1] was “Inactivating the thrombin cleavage site of FVII133 considerably reduced the activity; as the activity of FVII-184, which only became detectable at 50 nM, was much lower than that of FVIIa”, the “cleavage by 1.4 nM thrombin (HPLC)” value [2] was “Compound 1 was a better substrate for thrombin than Compounds 4 and 5” and the “release of peptide IVGGQE with 1.4 nM thrombin (HPLC)” value [3] was “thrombin-mediated release of peptide IVGGQE from Compound 6 without PABC linker was not observed”. For the same substance, the “amidolytic activity (chromozyme t-PA substrate) before and after thrombin activation” value [4] was “FVII-212 displayed no activity prior to thrombin activation. Following thrombin activation, the amidolytic activity associated with FVII-212 was greater than that observed for equal molar levels of rFVIIa”, the “cleavage by 1.4 nM thrombin (HPLC)” value [5] was “Compound 1 was a better substrate for thrombin than Compounds 4 and 5” and the “cleavage rate with 14 nM thrombin (HPLC, decrease of peptide peak area)” value [6] was “at least 10-fold increase in cleavage rate compared to that of Compound 2”. The “fraction cleaved and released with 1.4 nM thrombin (HPLC)” value [6] was 30% of Compound 1 was quickly cleaved and released.
